# Experimental data from paper PMC10925246 (bioRxiv, 2024).
# Read-outs that look alike come from different tables or passages of the source. Ends that are not written are not given here.
# T1: recombinant PotH (E. coli) with C-terminal 10-His tag (E. coli, UniProt P31135 1-317)
# T1 sequence (looked up): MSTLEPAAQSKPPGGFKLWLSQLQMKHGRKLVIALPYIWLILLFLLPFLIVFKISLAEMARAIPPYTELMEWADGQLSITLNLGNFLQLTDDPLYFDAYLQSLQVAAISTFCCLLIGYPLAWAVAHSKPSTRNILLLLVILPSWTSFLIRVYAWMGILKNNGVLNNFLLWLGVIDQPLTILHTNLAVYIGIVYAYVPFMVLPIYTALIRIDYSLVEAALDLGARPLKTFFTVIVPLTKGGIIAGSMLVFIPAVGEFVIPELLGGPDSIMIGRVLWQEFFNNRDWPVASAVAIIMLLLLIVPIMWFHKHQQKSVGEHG
# B1: Cys(N)-N-104 immobilized on SulfoLink Coupling resin (peptide)
# peptide: AQKLLKKFSLLKPWA
# Assays:
# [1] = biological target: T1, recombinant PotH (E. coli) with …; assay: pull-down
# [2] = biological target: B1; assay: pull-down
# [3] = biological target: thrombin (F2) C-terminal peptide GKY20 (human); assay: far-Western, overlay or dot blot
# [4] = biological target: thrombin (F2) C-terminal peptide GKY20 (human); assay: far-Western, overlay or dot blot; remark: listed apart in the source
binding result [3],Binder,other results
–,B1,binding result [1]: binds
–,Ac-WMGILKNNGVLNNFLLWLGVIDQPLTILHTN-NH2 [PotH outer loop 2 synthetic peptide],binding result [2]: binds
binds,Ac-AQKLLKKFSLLKPWA [lacritin peptide N-104],–
binds,"AQKLLKKSSLLKPWA (peptide, UniProt Q9GZZ8 124-138, looked up) [N-104:F112S]",–
binds,"AQKLSKKFSLLKPWA (peptide, UniProt Q9GZZ8 124-138, looked up) [N-104:L109S]",–
binds,"AQKLLKKFSSLKPWA (peptide, UniProt Q9GZZ8 124-138, looked up) [N-104:L114S]",–
binds,"AQKSLKKFSLLKPWA (peptide, UniProt Q9GZZ8 124-138, looked up) [N-104:L108S]",–
binds,"AQKLLKKFSLLSPWA (peptide, UniProt Q9GZZ8 124-138, looked up) [N-104:K116S]",–
binds,"AQKLLKSFSLLKPWA (peptide, UniProt Q9GZZ8 124-138, looked up) [N-104:K111S]",–
binds,"AQKLLKKFSLLKPSA (peptide, UniProt Q9GZZ8 124-138, looked up) [N-104:W118S]",–
binds,"AQSLLKKFSLLKPWA (peptide, UniProt Q9GZZ8 124-138, looked up) [N-104:K107S]",–
binds,"AQKLLSKFSLLKPWA (peptide, UniProt Q9GZZ8 124-138, looked up) [N-104:K110S]",–
binds,"AQKLLKKFSLSKPWA (peptide, UniProt Q9GZZ8 124-138, looked up) [N-104:L115S]",–
–,"AQKSSKKSSSSKPSA (peptide, UniProt Q9GZZ8 124-138, looked up) [N-104 L108S/L109S/F112S/L114S/L115S/W118S]",binding result [4]: binds
